Paper doi:10.1101/2020.11.18.388926

Biological target: T1, Fur (Pseudomonas aeruginosa, UniProt Q03456 1-134)
T1 sequence: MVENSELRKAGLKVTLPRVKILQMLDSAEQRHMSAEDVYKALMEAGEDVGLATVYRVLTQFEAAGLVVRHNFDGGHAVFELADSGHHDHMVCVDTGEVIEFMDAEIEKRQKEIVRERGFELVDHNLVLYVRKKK
Test: fluorescence anisotropy

B1: prrF1-30 (dsDNA)
DNA 1: GACATGGAAATGAGAATCATTATTATGTC
DNA 2: GACATAATAATGATTCTCATTTCCATGTC
Kd: 50 ± 10 nM
